According to the supplement of paper PMC10126150:
± gives the standard deviation of the averaged measurements.

Test system: ATP
Experiment: switch fluorescence ratio, 500 uM ATP over buffer (Cy3 cluster intensity, sum of 5 cycles each) (fold (ratio)); higher = stronger signal-on switching upon ATP binding; sequences stand for … in TCGTCGGCAGCGTCAGATGTGTATAAGAGACAGTTTTTTTTTTTTTTTTTTTTTTTTT…TC
Conditions: aptamer strand: ATP DNA aptamer (quencher-CACCTGGGGGAGTATTGCGGAGGAAGG + anchor), 100 nM annealed; ATP concentration: 500 uM
How it was run: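 Clusters carrying Cy3-labelled switching strands on a modified Illumina MiSeq flow-cell were annealed to 100 nM quencher-labelled ATP aptamer and imaged in selection buffer. They were imaged again after 15 min with 500 uM ATP at 22 °C, over five buffer/ATP cycles with NaOH stripping and re-annealing in between. For each cluster, the fluorescence ratio is the summed Cy3 intensity of the target cycles divided by that of the buffer cycles, averaged per switch-domain sequence. Clusters outside 100-1000 RFU were left out.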
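Further: ATP exposure 15 min at 22 °C before imaging.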

Sequence | switch fluorescence ratio
CATGCTTGGT | 1.013 ± 0.00025
CATGGAGGGG | 0.9617 ± 0.0061
CATGGATACA | 0.978 ± 0.052
CATGGATAGG | 1.011 ± 0.008
CATGGCCACC | 1.015 ± 0.0078
CATGGCTAGT | 1 ± 0.011
CATGGGAAGA | 0.9755 ± 0.004
CATGGGATGC | 1.08 ± 0.1
CATGGGTCCT | 1.04 ± 0.033
CATGGGTGTG | 0.993 ± 0.042
CATGGTAGAG | 0.975 ± 0.034
CATGGTGCCC | 1.03 ± 0.026
CATGGTGGCG | 1.01 ± 0.022
CATGGTGGGA | 0.969 ± 0.017
CATGTAACGC | 1.04 ± 0.066
CATGTAATTT | 0.966 ± 0.034
CATGTAGCCG | 1.01 ± 0.061
CATGTATGCT | 1 ± 0.014
CATGTATTTT | 0.991 ± 0.041
CATGTCAGGA | 1.02 ± 0.018
CATGTCTGTA | 1
CATGTGATTA | 1.007 ± 0.01
CATGTGGCGG | 0.995 ± 0.0016
CATGTGGGTG | 1 ± 0.047
CATGTGTGAG | 0.949 ± 0.026

Sequence | switch fluorescence ratio
CATGTGTGGT | 1.004 ± 0.0078
CATGTGTTGC | 0.987 ± 0.012
CATGTTAGTC | 1.01 ± 0.012
CATGTTATCC | 1.01 ± 0.034
CATGTTGGTA | 0.9946 ± 0.0076
CATGTTTCTG | 0.9927 ± 0.0078
CATGTTTTGG | 0.9836 ± 0.0043
CATGTTTTTG | 1 ± 0.025
CATTAAAGAT | 1.01 ± 0.077
CATTAAAGCC | 0.968 ± 0.025
CATTAGAGGT | 0.995 ± 0.014
CATTAGTAGC | 1.02 ± 0.05
CATTATATCG | 1 ± 0.023
CATTATGCTT | 0.9864 ± 0.0014
CATTATGGAG | 1 ± 0.047
CATTCAGTCG | 1 ± 0.026
CATTCAGTTC | 1 ± 0.058
CATTCATGCT | 0.971 ± 0.033
CATTCGGATG | 1.01 ± 0.055
CATTGAGTAG | 1.01 ± 0.024
CATTGAGTCG | 0.98 ± 0.052
CATTGCAA | 1 ± 0.085
CATTGCAAAC | 5.13 ± 0.53
CATTGCTCTG | 1.02 ± 0.026
CATTGGGGGG | 0.99 ± 0.038

Sequence | switch fluorescence ratio
CATTGGTAGG | 0.987 ± 0.019
CATTGGTTTG | 1.01 ± 0.048
CATTGTCTTC | 1.05 ± 0.055
CATTGTGGGA | 0.997 ± 0.023
CATTGTGGGC | 0.9621 ± 0.0034
CATTTAAAGC | 1 ± 0.018
CATTTAGCAC | 1.131 ± 0.0021
CATTTAGCTG | 0.9875 ± 0.0055
CATTTAGGGC | 1.02 ± 0.054
CATTTAGGGG | 0.995 ± 0.036
CATTTAGGTA | 1.001 ± 0.0078
CATTTATAGT | 0.9799 ± 0.0083
CATTTATGTG | 0.978 ± 0.021
CATTTCAACC | 1.019 ± 0.0021
CATTTGAGGT | 1 ± 0.027
CATTTGATCG | 1.03 ± 0.013
CATTTGCGCA | 1.022 ± 0.0084
CATTTGGATT | 1.04 ± 0.012
CATTTGGGGT | 0.989 ± 0.017
CATTTTATAA | 0.999 ± 0.014
CATTTTCCGC | 1.81 ± 0.57
CATTTTCTC | 1.038 ± 0.0086
CATTTTGTCT | 1.018 ± 0.0047
CCAAAAAAGG | 0.9625 ± 0.005
CCAAAAGGAT | 1.01 ± 0.012

Sequence | switch fluorescence ratio
CCAAAAGTAT | 1.03 ± 0.081
CCAAAATTCC | 1.12 ± 0.034
CCAAACAGGA | 1.006 ± 0.0063
CCAAACGATT | 1.02 ± 0.027
CCAAAGGGTT | 1.036 ± 0.0034
CCAAATAGGA | 1.01 ± 0.013
CCAAATGAGT | 0.989 ± 0.012
CCAACTGGGA | 1.05 ± 0.012
CCAAGAGTCG | 1.08 ± 0.046
CCAAGCGCTG | 1.06 ± 0.03
CCAAGGAAAA | 1.04 ± 0.17
CCAAGGCAGG | 1.35 ± 0.069
CCAAGGCGGG | 1.04 ± 0.017
CCAAGGGCTG | 1.15 ± 0.19
CCAAGGTCCT | 1.01 ± 0.014
CCAAGTGCTG | 0.994 ± 0.018
CCAAGTGGGA | 0.985 ± 0.01
CCAAGTGGGC | 1.03 ± 0.053
CCAAGTGTAT | 1.02 ± 0.055
CCAAGTTGTG | 1.03 ± 0.074
CCAAGTTTTT | 0.98 ± 0.031
CCAATCGGGG | 1.03 ± 0.087
CCAATGAGTC | 0.971 ± 0.013
CCAATGGTGG | 1.01 ± 0.043
CCAATGTGCG | 0.9925 ± 0.0092

Sequence | switch fluorescence ratio
CCAATTCAAG | 0.9977 ± 0.0073
CCACAAAATT | 1.1 ± 0.18
CCACAGAAAA | 1.033 ± 0.006
CCACAGGGCA | 1.34 ± 0.059
CCACCCACAT | 1.48 ± 0.065
CCACTTGAAA | 1 ± 0.018
CCACTTGGTC | 1.06 ± 0.064
CCAGACAGGG | 0.956 ± 0.045
CCAGACATGA | 1.02 ± 0.012
CCAGAGGAAC | 0.948 ± 0.019
CCAGAGGTGT | 1.6 ± 0.064
CCAGCATAGA | 1.14 ± 0.044
CCAGCTGGAG | 0.997 ± 0.025
CCAGCTGGAT | 1.015 ± 0.0088
CCAGGCAAGC | 2.46 ± 1.3
CCAGGCATGT | 1.05 ± 0.012
CCAGGCGCGG | 1.05 ± 0.055
CCAGGCTTAA | 1.06 ± 0.036
CCAGGGAGCC | 1.1 ± 0.17
CCAGGGCGGC | 0.854 ± 0.019
CCAGGGCTAG | 1.02 ± 0.062
CCAGGGGGGC | 1.16 ± 0.061
CCAGGGGTGG | 1.02 ± 0.064
CCAGGGTGCT | 2 ± 0.39
CCAGGTAACT | 1.05 ± 0.018

Sequence | switch fluorescence ratio
CCAGGTAAGT | 1.11 ± 0.11
CCAGGTAGAG | 1.32 ± 0.13
CCAGGTGTTA | 2.31 ± 1.8
CCAGGTTAAT | 1.036 ± 0.0033
CCAGGTTGTT | 1.551 ± 0.0043
CCAGGTTTGC | 1.08 ± 0.067
CCAGGTTTTT | 1.04 ± 0.017
CCAGTAATTG | 1.04 ± 0.022
CCAGTAGACT | 1.06 ± 0.035
CCAGTAGGTC | 1.03 ± 0.022
CCAGTCATGA | 1.014 ± 0.0027
CCAGTGAGTC | 1.07 ± 0.041
CCAGTTGATG | 0.991 ± 0.057
CCAGTTTACT | 1.01 ± 0.042
CCAGTTTGGT | 0.9871 ± 0.0073
CCAGTTTGTG | 1.018 ± 0.0037
CCAGTTTTTC | 1.01 ± 0.019
CCAGTTTTTT | 1.002 ± 0.0099
CCATACGTCA | 1.25 ± 0.054
CCATACTTAT | 1.042 ± 0.0059
CCATAGCAGG | 3.97 ± 0.9
CCATAGCTCA | 2.016 ± 0.016
CCATAGTGAC | 2.18 ± 0.18
CCATATAGGC | 1.03 ± 0.065
CCATCATAGG | 1.0149 ± 0.00068

Sequence | switch fluorescence ratio
CCATCATTTT | 0.99 ± 0.041
CCATCGGTGG | 1 ± 0.047
CCATCGTATG | 0.971 ± 0.015
CCATGAAAAT | 1.029 ± 0.003
CCATGGAGTA | 1 ± 0.019
CCATGGCGGG | 0.97 ± 0.028
CCATGGCTGG | 1 ± 0.016
CCATGGGGGA | 1.01 ± 0.0019
CCATGGTACG | 1.051 ± 0.01
CCATGTGTG | 1.02 ± 0.024
CCATGTTAAG | 0.985 ± 0.02
CCATGTTGCG | 0.982 ± 0.012
CCATTCCCAT | 1.26 ± 0.28
CCATTGTAAG | 1.02 ± 0.05
CCATTGTAGT | 0.99 ± 0.013
CCATTGTGAC | 1.06 ± 0.018
CCATTGTGCA | 1.01 ± 0.013
CCCAATTTGA | 1.06 ± 0.014
CCCAGAGTTC | 1.06 ± 0.023
CCCAGATTTT | 1.02 ± 0.03
CCCAGTCAGA | 1.033 ± 0.0078
CCCAGTTTGG | 1.01 ± 0.015
CCCATCCGGT | 1.12 ± 0.023
CCCATGCGTT | 1.03 ± 0.063
CCCATGGGGG | 1.01 ± 0.028

Sequence | switch fluorescence ratio
CCCATTTAGG | 1.04 ± 0.084
CCCATTTTTT | 1 ± 0.049
CCCCAAAAGT | 1.12 ± 0.14
CCCCAATTT | 0.999 ± 0.025
CCCCACGGCC | 1.16 ± 0.028
CCCCAGGGGG | 3.38 ± 2.3
CCCCCGGTTT | 1.12 ± 0.044
CCCCGGTTA | 1.46 ± 0.12
CCCCTCGAGG | 0.966 ± 0.049
CCCGATCATA | 1.02 ± 0.017
CCCGCAGTGT | 4.3 ± 1.4
CCCGGGGCTG | 1.024 ± 0.0073
CCCGGTATAT | 1.22 ± 0.12
CCCGGTTTTA | 1.06 ± 0.12
CCCGTAGGCT | 0.973 ± 0.014
CCCTGGGTCT | 1.028 ± 0.0089
CCCTTGCGGT | 1.03 ± 0.047
CCCTTTTTTT | 1.07 ± 0.037
CCGAAGGGGA | 1.65 ± 0.88
CCGAATCGGA | 1.02 ± 0.054
CCGAATTCT | 1.13 ± 0.029
CCGACCTGTA | 1.94 ± 0.22
CCGAGATCGT | 1.02 ± 0.033
CCGAGGAGAG | 1.1 ± 0.037
CCGATAGGCA | 1.124 ± 0.0038
